Data published in the Human Domainome abundance scans (Beltran et al. 2025).
± gives the uncertainty stated by the source.

B1: E3 ubiquitin-protein ligase NEDD4, residues 836 to 881; numbered along this chain, P46934 (parent)
chain: EIEQGFLPKGWEVRHAPNGRPFFIDHNTKTTTWEDPRLKIPAHLRG
B2: V(D)J recombination-activating protein 2, residues 415 to 491; numbered along this chain, P55895 (parent)
chain: YWITCCPTCDVDINTWVPFYSTELNKPAMIYCSHGDGHWVHAQCMDLAERTLIHLSAGSNKYYCNEHVEIARALHTP

Variants of: B1
Test: abundance fitness (aPCA) (normalised: wild type 0, dead -1); higher = more abundant; growth selection in yeast, the domain comes from the species named
Details: Homo sapiens

| Variant | abundance fitness |
| --- | --- |
| P21A | -0.055 ± 0.04 |
| P21N | -0.487 ± 0.11 |
| P21R | -0.109 ± 0.038 |
| N18R | -0.805 ± 0.11 |
| R37F | -0.672 ± 0.14 |
| H15Q | -0.257 ± 0.098 |
| F23G | -0.566 ± 0.049 |
| F23C | -0.966 ± 0.12 |
| F23A | -0.416 ± 0.088 |
| E34S | -0.163 ± 0.039 |
| T30R | -0.2 ± 0.053 |
| T30W | -1.38 ± 0.28 |
| T30E | -0.206 ± 0.11 |
| I2Y | -0.326 ± 0.14 |
| I2L | 0.11 ± 0.064 |
| I2P | -0.953 ± 0.16 |
| D25R | -0.682 ± 0.067 |
| E3T | -0.029 ± 0.042 |
| T28F | -0.776 ± 0.14 |
| T28S | -0.201 ± 0.048 |
| T28L | -0.341 ± 0.049 |
| Q4H | -0.172 ± 0.059 |
| Q4F | 0.067 ± 0.074 |
| Q4M | -0.387 ± 0.084 |

| Variant | abundance fitness |
| --- | --- |
| Q4C | 0.012 ± 0.057 |
| Q4Y | -0.016 ± 0.083 |
| F22G | -0.712 ± 0.048 |
| F22V | -0.211 ± 0.048 |
| I24Y | 0.137 ± 0.16 |
| D35M | -0.734 ± 0.16 |
| D35T | -0.84 ± 0.15 |
| E1Y | 0.202 ± 0.45 |
| E1N | 0.381 ± 0.29 |
| P41M | -0.353 ± 0.062 |
| K29L | -0.343 ± 0.037 |
| K29Q | -0.063 ± 0.042 |
| V13A | -0.266 ± 0.036 |
| F6A | 0.155 ± 0.034 |
| I40V | -0.007 ± 0.054 |
| I40H | -0.17 ± 0.084 |
| K9G | -0.252 ± 0.042 |
| K9C | -0.268 ± 0.087 |
| L44H | 0.116 ± 0.069 |
| L44W | -0.188 ± 0.051 |
| L44F | -0.423 ± 0.069 |
| A42M | -0.181 ± 0.096 |
| A42H | -0.086 ± 0.11 |
| A42K | -0.092 ± 0.052 |

| Variant | abundance fitness |
| --- | --- |
| R20D | -0.212 ± 0.083 |
| G5N | 0.031 ± 0.05 |
| G5K | 0.015 ± 0.042 |
| G19Y | -0.828 ± 0.053 |
| R45L | -0.182 ± 0.045 |
| R45P | 0.006 ± 0.058 |
| R45T | -0.074 ± 0.041 |
| T31A | -0.004 ± 0.044 |
| T31Y | -0.511 ± 0.09 |
| P8L | -0.988 ± 0.23 |
| T32I | -0.471 ± 0.14 |
| T32K | -0.775 ± 0.046 |
| L38E | -0.093 ± 0.068 |
| L38P | -0.072 ± 0.043 |
| L38M | -0.066 ± 0.066 |
| W11E | -0.326 ± 0.044 |
| W11G | -0.575 ± 0.037 |
| W11M | -0.563 ± 0.058 |
| H43K | -0.04 ± 0.054 |
| H43R | -0.195 ± 0.037 |
| H43W | -0.311 ± 0.075 |
| G46S | -0.002 ± 0.094 |
| G10C | -0.722 ± 0.059 |

Variants of: B2
Test: as above
Details: Homo sapiens

| Variant | abundance fitness |
| --- | --- |
| S59Y | -0.031 ± 0.12 |
| N60W | -0.207 ± 0.096 |
| N60I | -0.045 ± 0.099 |
| N60P | -0.118 ± 0.08 |
| N60V | -0.04 ± 0.068 |
| N60C | -0.209 ± 0.12 |
| N60E | 0.046 ± 0.083 |
| N60T | -0.022 ± 0.063 |
| N60H | -0.084 ± 0.054 |
| N60A | 0.002 ± 0.069 |
| N60G | -0.017 ± 0.066 |
| N60D | 0.01 ± 0.13 |
| N60Q | -0.069 ± 0.08 |
| N60K | -0.114 ± 0.12 |
| N60F | -0.273 ± 0.16 |
| N60R | -0.058 ± 0.056 |
| N60M | -0.081 ± 0.1 |
| N60S | -0.062 ± 0.062 |
| A71Q | 0.044 ± 0.069 |
| A71I | -0.008 ± 0.1 |
| A71G | -0.051 ± 0.05 |
| A71W | -0.207 ± 0.18 |
| A71L | 0.027 ± 0.037 |
| A71P | -0.03 ± 0.079 |

| Variant | abundance fitness |
| --- | --- |
| A71N | -0.121 ± 0.1 |
| A71R | 0.026 ± 0.052 |
| A71Y | 0.124 ± 0.15 |
| A71H | -0.179 ± 0.12 |
| A71D | -0.038 ± 0.088 |
| A71E | 0.085 ± 0.072 |
| A71S | -0.04 ± 0.06 |
| A71T | 0.09 ± 0.1 |
| A71K | -0.225 ± 0.1 |
| A71M | -0.12 ± 0.1 |
| A71C | -0.033 ± 0.061 |
| A71V | -0.003 ± 0.051 |
| T76N | -0.13 ± 0.13 |
| T76V | -0.074 ± 0.064 |
| T76G | -0.057 ± 0.056 |
| T76Q | -0.009 ± 0.097 |
| T76P | 0.054 ± 0.11 |
| T76R | -0.091 ± 0.073 |
| T76H | -0.149 ± 0.2 |
| T76I | -0.155 ± 0.14 |
| T76F | -0.373 ± 0.17 |
| T76S | -0.046 ± 0.077 |
| T76K | 0.081 ± 0.094 |
| T76C | -0.416 ± 0.18 |

| Variant | abundance fitness |
| --- | --- |
| T76M | -0.034 ± 0.089 |
| T76L | -0.029 ± 0.078 |
| T76W | -0.321 ± 0.11 |
| T76A | 0.005 ± 0.076 |
| E66L | 0.01 ± 0.066 |
| E66P | -0.231 ± 0.08 |
| E66A | -0.025 ± 0.064 |
| E66K | -0.099 ± 0.092 |
| E66N | -0.381 ± 0.21 |
| E66M | 0.048 ± 0.11 |
| E66T | -0.063 ± 0.13 |
| E66V | -0.105 ± 0.06 |
| E66F | -0.193 ± 0.22 |
| E66S | -0.039 ± 0.074 |
| E66W | -0.192 ± 0.078 |
| E66H | -0.22 ± 0.17 |
| E66Q | -0.057 ± 0.12 |
| E66G | 0.006 ± 0.054 |
| E66I | -0.17 ± 0.11 |
| E66R | -0.127 ± 0.058 |
| E66C | 0.023 ± 0.11 |
| H67N | -0.32 ± 0.096 |
| H67D | -0.424 ± 0.1 |
| H67W | -0.484 ± 0.055 |

| Variant | abundance fitness |
| --- | --- |
| H67C | -0.031 ± 0.074 |
| H67L | -0.741 ± 0.043 |
| H67R | -0.253 ± 0.034 |
| H67P | -0.369 ± 0.069 |
| H67T | -0.22 ± 0.076 |
| H67F | -0.485 ± 0.1 |
| H67S | -0.196 ± 0.054 |
| H67I | -0.874 ± 0.31 |
| H67M | -0.579 ± 0.053 |
| H67K | -0.388 ± 0.081 |
| H67V | -0.387 ± 0.048 |
| H67G | -0.116 ± 0.044 |
| H67Q | -0.348 ± 0.058 |
| V68L | -0.08 ± 0.091 |
| V68C | -0.019 ± 0.14 |
| V68K | -0.115 ± 0.14 |
| V68Q | -0.495 ± 0.48 |
| V68P | -0.125 ± 0.25 |
| V68R | -0.163 ± 0.18 |
| V68E | -0.439 ± 0.22 |
| V68M | -0.087 ± 0.2 |
| V68A | -0.173 ± 0.14 |
| V68W | -0.076 ± 0.2 |
| V68G | 0 ± 0.091 |
